{"source": "paper PMC2020459", "about": "“SELDI-TOF mass spectrometry of High-Density Lipoprotein” (Proteome Science, 2007)", "target": "the molecule itself", "experiment": "affinity purification with mass spectrometry; anti-apo A-II monoclonal antibody covalently bound on a PS-20 protein chip; plasma diluted 1:2 in TBS pH 7.4 or purified HDL, 2 h at room temperature; washes 4 x TBS, TBS-Tween 0.005 %, 5 mM Hepes; SELDI-TOF MS of captured native HDL"}
{"protein": "apolipoprotein A-II (natural protein, apolipoprotein A-II of human plasma HDL; dimer at about 17.4 kDa (17099, 17221 and 17352 m/z); Three dimer species were seen: the full dimer and dimers lacking one or two terminal (probably C-terminal) glutamine residues; The dimer is probably the disulfide-linked one (my surmise); Present on native HDL particles; also called apo A-II; source: endogenous, human plasma (HDL particles captured …)) not shown", "values": [{"measurement": "stoichiometry N", "value": 2}]}
